Reference: paper PMC9231368, “Production of GMP-Compliant Clinical Amounts of Copper-61 Radiopharmaceuticals from Liquid Targets” (Pharmaceuticals, 2022)
Positions of bridges follow the written chain, without caps; N, C: chain ends. Non-standard residues stand in square brackets, D forms with d. Residues, ends and D or L forms follow the SMILES beside them. *: point of attachment. DOTA = O=C(O)CN1CCN(CC(=O)O)CCN(CC(=O)*)CCN(CC(=O)O)CC1; 1Nal = N[C@@H](Cc1cccc2ccccc12)C(=O)O; Thr(ol) = C[C@@H](O)[C@H](N)CO

Assay: Radiolysis during labelling reaction, with and without EtOH as radiolytic scavenger
Type: physicochemical
Conditions: final product vial, radio-HPLC, single test
Source text: The considerably high percentage of radiolysis in the final product vial (FPV), caused by the presence of free radicals in solution (e.g., superoxide or hydroxyl radicals), impaired the establishment of the most favourable labelling conditions. Although not explicitly measured, for higher activity concentrations, the radiolysis percentage was anticipated to increase. Several compounds are known to act as radiolytic stabilizers and protect against radiolysis. Antioxidant compounds, such as ascorbic acid (AA) and gentisic acid (GA), are commonly known to protect against radiolysis and are mainly described in the literature for radiolabelling biomolecules with β^--emitting radionuclides (e.g., yttrium-90 and luthetium-177). Notwithstanding, these compounds might have a negative impact on copper-based radiopharmaceuticals, given the redox properties of copper. […] To evaluate the applicability of EtOH as a radiolytic scavenger for ^61Cu-based radiopharmaceuticals, a single test with and without EtOH was performed before establishing optimal labelling conditions. […] Compared with the labelling of [^61Cu]Cu-DOTA-NOC without EtOH (Figure 4A), it is evident that there is a significant decrease in the rate of radiolysis using the ethanol-based method (Figure 4B–D). […] Based on these findings, the use of EtOH was implemented in all further labelling formulations to act as a radiolytic stabilizing agent during the labelling reaction.
Figure 4 Representative chromatograms of [^61Cu]Cu-DOTA-NOC, [^61Cu]Cu-DOTA-TOC and [^61Cu]Cu-DOTA-TATE without (A) and with (B–D) using EtOH (maximum 5 vol% EtOH) during the labelling reaction. Two different HPLC methods were used, as described in Table 4. For a more practical comparative analysis between chromatograms, raw data was normalised as percentage of total radioactivity. Percentage of radiolysis is the ratio of radiolysis counts to total counts. TEXT PRINTED IN THE PICTURE: (A) [^61Cu]Cu-DOTA-NOC: Radiolysis: > 15% | (B) [^61Cu]Cu-DOTA-NOC: Radiolysis: < 5% | (C) [^61Cu]Cu-DOTA-TOC: Radiolysis: < 1% | (D) [^61Cu]Cu-DOTA-TATE: Radiolysis: < 1%
RCP was measured by HPLC (Agilent 1200 series HPLC system, Agilent Technologies, Santa Clara, CA, USA) equipped with a GABIStar NaI(Tl) radiometric detector (Raytest Isotopenmessgeraete GmbH, Straubenhardt, Germany) (20 μL sample volume). Two different methods (Table 4) were used, one for [^61Cu]Cu-DOTA-NOC (Method A) and a second to evaluate both [^61Cu]Cu-DOTA-TATE and [^61Cu]Cu-DOTA-TOC (Method B). An ACE 3 C18 150 × 3 mm HPLC column (ACE, Reading, UK) was used in both methods, and the flow was fixed at 0.6 mL/min.

[1] = labelling with EtOH up to 300 μL (maximum 5 vol% EtOH)

| SMILES | Radiolysis (ratio of radiolysis counts to total counts) [1] | Radiolysis (ratio of radiolysis counts to total counts) (labelling without EtOH) |
| --- | --- | --- |
| C[C@@H](O)[C@@H]1NC(=O)[C@H](CCCCN)NC(=O)[C@@H](Cc2c[nH]c3ccccc23)NC(=O)[C@H](Cc2ccc(O)cc2)NC(=O)[C@@H](NC(=O)[C@@H](Cc2ccccc2)NC(=O)CN2CCN(CC(=O)O)CCN(CC(=O)O)CCN(CC(=O)O)CC2)CSSC[C@@H](C(=O)N[C@H](CO)[C@@H](C)O)NC1=O [[^61Cu]Cu-DOTA-TOC, metal not drawn] | less than 1% |  |
| C[C@@H](O)[C@H](NC(=O)[C@@H]1CSSC[C@H](NC(=O)[C@@H](Cc2ccccc2)NC(=O)CN2CCN(CC(=O)O)CCN(CC(=O)O)CCN(CC(=O)O)CC2)C(=O)N[C@@H](Cc2ccc(O)cc2)C(=O)N[C@H](Cc2c[nH]c3ccccc23)C(=O)N[C@@H](CCCCN)C(=O)N[C@@H]([C@@H](C)O)C(=O)N1)C(=O)O [[^61Cu]Cu-DOTA-TATE, metal not drawn] | less than 1% |  |
| C[C@@H](O)[C@@H]1NC(=O)[C@H](CCCCN)NC(=O)[C@@H](Cc2c[nH]c3ccccc23)NC(=O)[C@H](Cc2cccc3ccccc23)NC(=O)[C@@H](NC(=O)[C@@H](Cc2ccccc2)NC(=O)CN2CCN(CC(=O)O)CCN(CC(=O)O)CCN(CC(=O)O)CC2)CSSC[C@@H](C(=O)N[C@H](CO)[C@@H](C)O)NC1=O [[^61Cu]Cu-DOTA-NOC, metal not drawn] ({DOTA}-[dF]C[1Nal][dW]KTC[Thr(ol)]; disulfide 2-7 (inferred)) | less than 5% | more than 15% |
